Numbering of substitutions follows the chain as printed.
Legend:
xCas12i v6.1 = target: T1, xCas12i v6.1 (N243R,E336R,V880R); experiment: cell_activity; PAM TTTG; on-target; details: tags: NLS
T1 chain: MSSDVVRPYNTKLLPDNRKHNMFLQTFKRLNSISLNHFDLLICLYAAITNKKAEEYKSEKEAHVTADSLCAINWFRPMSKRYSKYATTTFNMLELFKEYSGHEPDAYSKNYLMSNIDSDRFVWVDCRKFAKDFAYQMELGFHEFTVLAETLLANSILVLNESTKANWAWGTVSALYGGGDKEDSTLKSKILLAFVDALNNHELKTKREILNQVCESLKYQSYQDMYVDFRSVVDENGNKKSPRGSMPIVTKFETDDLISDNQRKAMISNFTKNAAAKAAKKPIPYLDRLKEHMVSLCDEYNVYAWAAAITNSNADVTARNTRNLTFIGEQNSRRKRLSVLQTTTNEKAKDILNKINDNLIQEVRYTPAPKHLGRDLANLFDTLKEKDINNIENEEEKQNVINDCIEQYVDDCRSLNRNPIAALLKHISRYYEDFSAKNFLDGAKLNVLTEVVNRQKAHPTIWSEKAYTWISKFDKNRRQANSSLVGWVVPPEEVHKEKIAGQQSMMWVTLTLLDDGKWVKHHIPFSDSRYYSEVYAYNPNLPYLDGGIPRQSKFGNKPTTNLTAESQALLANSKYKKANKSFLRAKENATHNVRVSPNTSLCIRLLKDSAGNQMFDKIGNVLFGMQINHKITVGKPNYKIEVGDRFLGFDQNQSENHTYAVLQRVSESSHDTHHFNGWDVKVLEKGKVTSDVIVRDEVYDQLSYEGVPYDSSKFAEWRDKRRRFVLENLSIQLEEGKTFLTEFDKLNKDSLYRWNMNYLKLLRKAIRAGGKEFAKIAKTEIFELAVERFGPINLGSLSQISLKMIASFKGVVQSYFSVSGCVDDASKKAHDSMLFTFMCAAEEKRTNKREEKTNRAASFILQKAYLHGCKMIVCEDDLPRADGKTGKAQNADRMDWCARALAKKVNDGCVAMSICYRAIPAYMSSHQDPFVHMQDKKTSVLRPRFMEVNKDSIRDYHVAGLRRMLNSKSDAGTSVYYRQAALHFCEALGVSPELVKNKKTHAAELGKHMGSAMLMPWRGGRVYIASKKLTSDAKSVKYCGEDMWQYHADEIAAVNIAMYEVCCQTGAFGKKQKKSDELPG

[1] = target: T2, Cas12Max (xCas12i-N243R, v1.1) (N243R); experiment: cell_activity; PAM TTTG; on-target; details: tags: NLS
T2 chain: T1 chain with R336E, R880V

B1: TTR.2 crRNA ; TTR ON.1 (ssRNA ; dsDNA)
RNA: AUGACUCAGAAAUGUGUCCCCAGUUGACACUAGAAGGGAUAUACAAAGUGGA
DNA 1: TTTGTAGAAGGGATATACAAAGTGGA
DNA 2: TCCACTTTGTATATCCCTTCTACAAA
Binder B1 has an activity (xCas12i v6.1) of 75.7% and an activity [1] of 73.8%.

From patent US20250283063, “NOVEL CRISPR-CAS12I SYSTEMS AND USES THEREOF” (HUIDAGENE THERAPEUTICS (SINGAPORE) PTE. LTD., published 2025)
